± gives the uncertainty stated by the source.

The data set in a line: amyloid nucleation score (Sup35N fusion, yeast selection) (log enrichment); library NNK2; higher = more nucleation; inactive = no reads after selection. The method in brief: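 Peptides of 20 random codons fused to Sup35N were expressed in psi-negative yeast, induced 24 hours with 100 μM copper sulfate, then grown 7 days at 30°C on medium lacking adenine and uracil. Input and output plasmid inserts were Illumina-sequenced. Nucleation score is the DiMSum log enrichment of output over input reads, centred on the mode score of non-aggregating sequences, excluding sequences with under 100 input reads. Random libraries had three technical output replicates.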
On to HDVSVLYEPTAAGWNRLLQT, for which the amyloid nucleation score turned out to be 0.262 ± 0.54. With TLFRSELFAV the figure was 0.495 ± 0.56; with SNGTWLKNLGGPPPGRAMPW, 0.419 ± 0.34. The figure for GGGNCKKGYGCDVDCYESEG is -0.735 ± 0.56; for HWYTAMVYIFKRQD it is 0.974 ± 0.091; for LHSATNG it is 0.208 ± 0.37.

In turn, VDETNAKL came in with an amyloid nucleation score of 0.785 ± 0.3. The figure for HDDRFSCECYSSDSPESQGL is -0.105 ± 1.1. With KVHNLMGESGIKLYYVRFAH the entry was “inactive”; with FFFRSHKTIILVAKG, -0.104 ± 0.2; with ISWAVKMHDIPV, 0.97 ± 0.58. With FRSVFDKFLRYVFSFDVY the figure was -0.984 ± 0.76; with SSLVNTACDTL, -0.036 ± 0.29.

SLNLFV: the amyloid nucleation score was -0.901 ± 0.78. PRGAPNVFDFTLNFSLKQVA: the amyloid nucleation score is -0.551 ± 0.35. The figure for EFFISVSLNWCKTDCYTDPW is -0.407 ± 0.2. FYIFPQAFRLWKSLS: the amyloid nucleation score result is “inactive”. With IIYYIMVTFWYSVYQPFRSF, the amyloid nucleation score is -0.081 ± 0.79. With IGISWLATWPIEFTRLSRMV the figure was 1.53 ± 0.52; with GQWGETY, 0.476 ± 0.25. With DDIFNWFGVLGSNPLMVSVG the figure was 0.811 ± 0.33. With LLIVNCMLANYSFWIQSSGS the figure was 5.968 ± 0.029. HLLQRLSRGHMSALKTRLSW had an amyloid nucleation score of 0.123 ± 1.

WYSMISLSRTNIYRMFYVPV: the amyloid nucleation score was -0.453 ± 0.53. In turn, QFFMWTGGH showed an amyloid nucleation score of 2.84 ± 0.1. With RLLTSHD, the amyloid nucleation score was determined as 4.12 ± 0.089. The figure for CITLRYYMDVRLSLHMKRTW is 0.988 ± 0.53. Substance GIMQCFGSMRMQWCNSDKEC returned an amyloid nucleation score of 5.021 ± 0.037. With SNYSTGHGAGMEDRRLEMGG, the amyloid nucleation score was determined as 0.717 ± 0.49. With VKFTVFTQGQALIVPSGLL the figure was 5.32 ± 0.084; with WSFHRR, -0.552 ± 0.36; with GFSSNLVVLKKPS, -0.249 ± 1.1. With RIFRYNDTVLCVLLGTNVGD the figure was -0.418 ± 1.1.

Turning to DCPLYRWDTWRLSGSRT, the amyloid nucleation score entry was “inactive”. Consider VIVLIVLPEYAGVYSHWCWD, for which the amyloid nucleation score was found to be 0.772 ± 0.81.

The substance CHGSCSYETSVVCYMWSGKG displayed an amyloid nucleation score of 3.21 ± 0.14. TVLGTCPVNKVVDNSREAGS returned an amyloid nucleation score of 1.36 ± 0.49. FCSTTAICYKGEKQ came in with an amyloid nucleation score of 3.47 ± 0.14. VALHWNWDLFLYVRYFFDHT: the amyloid nucleation score result is “inactive”. With YCGVSLFSINTYSY the figure was 6.94 ± 0.05. On to AWRGFTSIGAYYAQFGLGVA, for which the amyloid nucleation score amounted to 0.431 ± 0.36. With PLWVEGFMCSNGMCILGRSG, the amyloid nucleation score was 1.77 ± 0.14.

NSPPVLLHMWRFRRRDTRRY: the amyloid nucleation score was -0.551 ± 0.61.

In the case of LLSMYRFFNTLKSC, the amyloid nucleation score is -0.087 ± 0.33. For TWNSANFFIKLRQSVFYLSR, the amyloid nucleation score was -1.46 ± 1.1. With ALDFSRSRDKGG the figure was 1.42 ± 0.23. The figure for YVLRYYALVLYFLICWYYAY is 0.215 ± 0.57; for TCVALSYLVGGSALNS it is -0.818 ± 0.78; for RFGNCGVTMTRSAGRFRAIS it is -0.169 ± 0.29. Regarding KFSKGSPGWWHQGSLCMVAM, the amyloid nucleation score was 1.51 ± 0.58.

With PILEIYVCGSLMYIFNITIV, the amyloid nucleation score came to 6.691 ± 0.033. Regarding SFGGARVSLLCCFPSTSIAS, the amyloid nucleation score turned out to be 9.374 ± 0.036. On to YWFARCHFSPAMRIYYRTRA, for which the amyloid nucleation score was -0.171 ± 0.62. For the substance SCYNFVWYTCGLYMWLNCLL, the amyloid nucleation score was -0.793 ± 0.32. Turning to YVVKWPCGLTPCALPTPIRQ, the amyloid nucleation score stood at 0.969 ± 0.21. The figure for NERQEIIPDSSPETHVSNIT is 1.12 ± 0.12. The entry for RYMRFYRLAGPAVLRFHLR is “inactive”; for TSYACRVIAMRVVCPCRQLR it is “inactive”; for GSRVWFEIINL it is 6.013 ± 0.026. Regarding PVPNYCSEII, the amyloid nucleation score is -1.1 ± 1. Take MSVVVLWHGLCLQLYMCDA: the amyloid nucleation score is -0.23 ± 0.65. With LLPWHRIAWDAYCMWGMSSS the figure was 0.266 ± 0.21; with SCLEMYSHRVPWSFACDDYN, “inactive”. With FFWSLGSYILHYC the entry was “inactive”. Turning to SRNLTVNK, the amyloid nucleation score is -0.072 ± 0.79. The figure for QVLIIPLWKNGLRTIIRWL is 0.106 ± 1. With CGYLSNRSDNRCDLLYACFR the figure was 0.571 ± 0.36; with LIYGDASETLC, 0.227 ± 0.43. For the substance TIIIREQSKPFPCLE, the amyloid nucleation score turned out to be 0.931 ± 0.74. MFVGSGRDCTVTVPFRQPTG showed an amyloid nucleation score of 1.86 ± 0.29.

For VTVLTGVG, the amyloid nucleation score was determined as 4.79 ± 0.058.

Take DSGLVLNAGIIGSV: the amyloid nucleation score is -1.11 ± 0.49. The figure for YCHLVV is 2.04 ± 0.087; for PLRNGDGVSFLGSVLSWPQA it is -0.294 ± 1.1. NTFFQYDPRHRGHTAGWCGE returned an amyloid nucleation score of 0.07 ± 0.54.

On to TVPRFEKHFRAVVNLLGRND, for which the amyloid nucleation score was found to be 0.277 ± 0.46.

As for EFGDQLSDYNWIVCMLGTYI, the amyloid nucleation score is -0.904 ± 1.1.

In the case of SKFLM, the amyloid nucleation score is -1.14 ± 0.48. On to STTVTLGQSICFYLSCGLRD, for which the amyloid nucleation score came out at 9.214 ± 0.051. The figure for SGSLSINDNSCYGENTNTVL is -1.21 ± 1.1; for RHSLYVFY it is 1.69 ± 0.33.

On to SLLLYYMGGK, for which the amyloid nucleation score stood at 5.114 ± 0.042. Substance GVDFTWDRGCIGGRGCSSRY yielded an amyloid nucleation score of 5.956 ± 0.054. With PLGPNSTYFVWASSWAFYRP the figure was -1.65 ± 0.78; with IGFDFRTA, 0.418 ± 0.62; with QNFNILIGRGDVY, 1.6 ± 0.23. The figure for YQGSLGSDMAISKLFDSDYE is -0.656 ± 1.1.

In the case of TEIHNT, the amyloid nucleation score entry is “inactive”.

Turning to TCSGWTWRQGLLVLSCRMIL, the amyloid nucleation score is 0.287 ± 0.38. The figure for RMRLPPFPIDWSDAYLFWHS is 1.28 ± 0.38; for SLDNWFTDSRAGVGLVFS it is -0.277 ± 1. With RVNCYYSFRS the figure was 6.026 ± 0.038; with EIHCPMITMISVGRDSMKFN, 0.996 ± 0.41.

GMRWSFGVLASRSFCVKWCP yielded an amyloid nucleation score of 5.57 ± 0.09. As for VFFSESERYSGVKLGAVEDT, the amyloid nucleation score stood at 0.189 ± 0.49.

As to TRFLPDAY, the amyloid nucleation score is -0.903 ± 0.32. Regarding PSITPLACHHTRCNW, the amyloid nucleation score was -0.881 ± 0.28. The figure for TYSTLFDFRMI is 0.099 ± 0.31; for LYFSNPWFMIKSRDMFVCIG it is 0.51 ± 0.18.

For GIFGMC, the amyloid nucleation score was 0.366 ± 0.56. With FSMQSMSKGYVLRPLGMA the figure was -0.098 ± 0.3.

As to MWVDQMVFKRPGYCRSGMYL, the amyloid nucleation score came to 4.78 ± 0.049. The entry for YNFLWWSMKDT is “inactive”; for FAFWGVSI it is 0.332 ± 0.24; for SFLVISWRADRFAA it is 5.124 ± 0.042. For the substance VVLSCFLQRAPQVYSLF, the amyloid nucleation score is -0.821 ± 1.1. Regarding VLSDRKVY, the amyloid nucleation score was 0.117 ± 0.79. With PWCTWSFVADLENSYRRWVR the figure was 2.57 ± 0.12. With WLLWNSECIANCAFTRYSMF the figure was -0.079 ± 0.33. The figure for TIFSHVYLALLR is 0.382 ± 0.8; for REFLMD it is “inactive”; for TWSEWSTCRMGATRSH it is 0.301 ± 0.27.

AANRPGTSC showed an amyloid nucleation score of 0.767 ± 0.74. The figure for MRLVSSDDFCV is 0.097 ± 0.8; for TIVWLGRPLYTGFKNTKRGH it is “inactive”; for PINKGKWCSTNFNAGITRI it is -0.01 ± 0.61. With REQYPYINQHRP the figure was 2.52 ± 0.14; with WDALGNVRRAMWVPS, 0.048 ± 0.41. With PGLLQGLKSGWSKTYKLLTR the figure was 0.808 ± 0.8. With MSNARRFSMNDSYNIVLCWE, the amyloid nucleation score was -0.111 ± 0.63. The figure for YVWSWVGQYCRVIAAHGIWW is 0.79 ± 0.26; for WSLKKLITDRFGSSCSAALH it is “inactive”; for YLLRYYGGSFNHLMCWFRSP it is 2.6 ± 0.06.

In the case of NACILNSM, the amyloid nucleation score result was “inactive”. With LQCEIKPMGDTIMW the figure was 1.47 ± 0.54.

In the case of SARAICMAVLESSESDHNGV, the amyloid nucleation score was -0.299 ± 0.36. RGSRNNQVWGQSFFMPQWTA: the amyloid nucleation score is -0.405 ± 0.41. The figure for HRSYCGFICASVLSAGPVHR is -0.31 ± 1.1; for LGGTY it is -0.449 ± 0.64; for SFILD it is “inactive”.

In the case of NIAWTVDRYRKGSARGV, the amyloid nucleation score was determined as 1.17 ± 0.23. GSCRHHRWGLVRGMFCVSAL showed an amyloid nucleation score of 1.17 ± 0.42. KFMHRWPVYMVSTGLSLIVW: the amyloid nucleation score is -0.458 ± 0.41.

On to MMGWFPRKLES, for which the amyloid nucleation score is -0.125 ± 0.41. With FINVLDSNLAQLWLLFTSWR the figure was 1.51 ± 0.14.

For GMVRRQVTLMSSSDRAI, the amyloid nucleation score was -1.07 ± 1.1. As for FKLFSFQVLYCSFDPCMHYT, the amyloid nucleation score is -1.33 ± 0.62. The figure for TYALVTRLFCFLVSEHWVTL is -0.047 ± 0.26; for YLASNLEDKWVWDGFMLVSR it is 0.356 ± 0.74. The figure for NRNLSYHT is 0.633 ± 0.8; for LGSCHAMRLIEDGSGMEWMF it is 0.645 ± 0.37.

The values are drawn from the supplement of paper PMC12042874.
